This is an account of results in publication PMC314469, “Protein Interaction Networks by Proteome Peptide Scanning” (PLoS Biology, 2004).

T1: Myo5 SH3 (MYO5_YEAST), Q04439
T1 chain: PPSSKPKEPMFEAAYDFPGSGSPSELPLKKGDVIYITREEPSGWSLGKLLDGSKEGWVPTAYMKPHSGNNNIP

The experiment addresses T1, Myo5 SH3 (MYO5_YEAST), Q04439. Nature of the experiment: SPOT array.
On to VPIIFEIPFNPIYK [YKL205W 1001-1014], for which the normalised SPOT signal, Boehringer light units (BLU); mean over the file's lines of this peptide is 215.
The figure for AEAYLVTPEEPAKN [YDL129W 9-22] is 39.6.
Then VPAILMTPISPRSL [YPL188W 282-295], with 138.
With AAVRLDQPILPQND [YBR018C 82-95], the normalised SPOT signal, Boehringer light units (BLU); mean over the file's lines of this peptide was 105.
For AELFLRRPIFPGRD [YBL016W 214-227], the normalised SPOT signal, Boehringer light units (BLU); mean over the file's lines of this peptide worked out at 216.
VLGVLNVPLPPQTR [YGL197W 857-870] registered a normalised SPOT signal, Boehringer light units (BLU); mean over the file's lines of this peptide of 233.
In turn, VPPNFNAPPNPMAF [YNL118C 392-405] gave a normalised SPOT signal, Boehringer light units (BLU); mean over the file's lines of this peptide of 1570.
As to VPDQLLTPLQPYTI [YJL127C 32-45], the normalised SPOT signal, Boehringer light units (BLU); mean over the file's lines of this peptide was 168.
VPSAFTAPPVPTKK [YDR517W 312-325] had a normalised SPOT signal, Boehringer light units (BLU); mean over the file's lines of this peptide of 358.
YENSHSLPLDPQSP [YLR416C 105-118] registered a normalised SPOT signal, Boehringer light units (BLU); mean over the file's lines of this peptide of 122.
VLKTLAFPINPSDI [YBR026C 53-66] returned a normalised SPOT signal, Boehringer light units (BLU); mean over the file's lines of this peptide of 156.
Then YPAKLRIPETPVKK [YJL187C 187-200], with 220.
Then YLNNLAEPLIPLSL [YDR389W 216-229], with 222; and VPGGMSIPGAPQGA [YPL169C 514-527], with 140; and AEFDLTDPEVPSFY [YDR362C 446-459], with 166.
Then VFSSLRDPVIPIKL [YGL195W 2560-2573], with 132; and AAMMLGNPMAPAVQ [YER109C 209-222], with 257.
In turn, YEVTFDGPNDPLHP [YLL028W 124-137] gave a normalised SPOT signal, Boehringer light units (BLU); mean over the file's lines of this peptide of 111.
The figure for VLKNLPTPGEPFNF [YML131W 8-21] is 148; for WLSKLVLPPPPVSI [YHR021W-A 81-94] it is 4130.
The figure for AAMNLETPSNPDSA [YPL217C 1040-1053] is 84.9.
Then AARILANPDHPFSR [YPR122W 171-184], with 166.
As to VPGEHFAPMGPNGQ [YHR098C 250-263], the normalised SPOT signal, Boehringer light units (BLU); mean over the file's lines of this peptide came out at 64.7.
The figure for AANAHISPPVPGPA [YHL002W 373-386] is 28.6.
The figure for VLLPLRLPEIPPKG [YFL036W 1323-1336] is 1070.
Consider VLFNLDHPMVPENL [YAL018C 292-305], for which the normalised SPOT signal, Boehringer light units (BLU); mean over the file's lines of this peptide turned out to be 220.
The figure for VLIKFVIPVYPSLP [YGR099W 37-50] is 562; for VPNRWATPLDPSIL [YAL015C 71-84] it is 126.
Turning to AAYDHAEPVQPEDA [YGL009C 504-517], the normalised SPOT signal, Boehringer light units (BLU); mean over the file's lines of this peptide amounted to 146.
On to YWKLFFQPEYPVRM [YLR128W 190-203], for which the normalised SPOT signal, Boehringer light units (BLU); mean over the file's lines of this peptide came to 144.
Then AELFLGIPIFPGAS [YJL141C 561-574], with 36.7.
Molecule AAPKHAPPPVPNET [YDL019C 770-783] returned a normalised SPOT signal, Boehringer light units (BLU); mean over the file's lines of this peptide of 111000.
YEQTMKSPKYPSTY [YDR314C 535-548] yielded a normalised SPOT signal, Boehringer light units (BLU); mean over the file's lines of this peptide of 138.
The figure for YLTEFSRPIPPTPS [YPL009C 61-74] is 169; for YASQYSRPDGPILL [YGR088W 39-52] it is 114; for YPEKFQKPYNPLAM [YJR059W 450-463] it is 157.
Then YFKNMSNPKIPATK [YIL125W 74-87], with 128; and AADSHAIPVDPPSY [YKR021W 673-686], with 37.9; and AADWYEVPKVPLSA [YLR223C 813-826], with 275.
The molecule YFKELPPPSDPSSI [YDL108W 289-302] came in with a normalised SPOT signal, Boehringer light units (BLU); mean over the file's lines of this peptide of 165.
Then YLNSLSEPLVPLAL [YOR134W 141-154], with 132; and YEADYVIPVLPGSH [YNL262W 2031-2044], with 125.
Then YEKALHFPAGPKST [YFL042C 472-485], with 147; and YLPHMSRPLGPDEV [YMR131C 97-110], with 172; and YEGRFWNPENPYKF [YEL011W 167-180], with 163.
The figure for VFSLMNSPAYPDVQ [YIL001W 264-277] is 153; for VPLPFGIPPFPMFP [YKL059C 406-419] it is 11600; for WLLPYSLPMHPGRW [YHR072W 218-231] it is 706.
YLLELPDPLIPNDV [YFL047W 564-577] yielded a normalised SPOT signal, Boehringer light units (BLU); mean over the file's lines of this peptide of 163.
For the molecule VLTKMNAPQKPEDI [YCR004C 46-59], the normalised SPOT signal, Boehringer light units (BLU); mean over the file's lines of this peptide turned out to be 296.
Then VLKGFYSPSAPSYD [YOR029W 22-35], with 290; and VLSKFIKPKNPSLV [YPL226W 187-200], with 320.
The figure for VPDSYKPPKNPIVF [YDR058C 17-30] is 829.
The figure for VLEAYNVPTPPRLE [YLR410W 284-297] is 57.4.
